{"source": "paper PMC9482650", "about": "“Quantitative fragmentomics allow affinity mapping of interactomes” (Nature Communications, 2022)", "experiment_in_all_cases": "holdup assay", "conditions_in_all_cases": "plain residues with an end cap or a label only (N-terminal biotin on a linker: (peg)3)", "key": {"[1]": {"target": "MAGIX, Q9H6Y5", "sequence (Q9H6Y5 118-211)": "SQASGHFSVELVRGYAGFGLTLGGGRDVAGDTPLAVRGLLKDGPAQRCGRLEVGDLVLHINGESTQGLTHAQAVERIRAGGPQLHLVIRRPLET"}, "[2]": {"target": "MAGI3_4, Q5TCQ9", "sequence (Q5TCQ9 716-815)": "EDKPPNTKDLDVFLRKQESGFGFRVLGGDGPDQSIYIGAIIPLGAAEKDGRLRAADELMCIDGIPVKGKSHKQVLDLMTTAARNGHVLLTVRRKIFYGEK"}, "[3]": {"target": "T1, PDZD2_1, O15018", "T1 sequence (O15018 80-192, limits assumed, looked up)": "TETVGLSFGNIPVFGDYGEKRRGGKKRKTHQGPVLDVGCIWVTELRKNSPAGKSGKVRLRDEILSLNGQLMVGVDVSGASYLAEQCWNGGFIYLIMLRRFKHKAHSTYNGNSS"}, "[4]": {"target": "T2, SYNPO2L, Q9H987", "T2 sequence (Q9H987 1-98, limits assumed, looked up)": "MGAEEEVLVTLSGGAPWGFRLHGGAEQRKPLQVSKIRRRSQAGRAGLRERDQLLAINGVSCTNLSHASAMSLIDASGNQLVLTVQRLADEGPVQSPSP"}, "[5]": {"target": "T3, USH1C_3, Q9Y6N9", "T3 sequence (Q9Y6N9 447-547, limits assumed, looked up)": "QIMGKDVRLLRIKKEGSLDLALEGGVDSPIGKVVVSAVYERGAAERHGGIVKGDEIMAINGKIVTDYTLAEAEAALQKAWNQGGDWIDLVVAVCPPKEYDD"}, "[6]": {"target": "T4, GRIP1_2, Q9Y3R0", "T4 sequence (Q9Y3R0 145-248, limits assumed, looked up)": "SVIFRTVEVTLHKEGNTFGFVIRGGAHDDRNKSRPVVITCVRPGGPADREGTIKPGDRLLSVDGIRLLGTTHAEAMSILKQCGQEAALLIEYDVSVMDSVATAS"}, "[7]": {"target": "T5, SHANK3, Q9BYB0", "T5 sequence (Q9BYB0 641-750, limits assumed, looked up)": "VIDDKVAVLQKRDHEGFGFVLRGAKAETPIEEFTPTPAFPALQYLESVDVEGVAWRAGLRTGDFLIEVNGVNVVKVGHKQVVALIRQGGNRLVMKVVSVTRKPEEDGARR"}, "[8]": {"target": "T6, PTPN13_4, Q12923", "T6 sequence (Q12923 1783-1878, limits assumed, looked up)": "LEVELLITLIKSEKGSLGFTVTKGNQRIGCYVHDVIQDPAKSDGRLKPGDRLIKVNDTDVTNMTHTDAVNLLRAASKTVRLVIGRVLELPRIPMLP"}, "[9]": {"target": "T7, NHERF1_1, O14745", "T7 sequence (O14745 9-104, limits assumed, looked up)": "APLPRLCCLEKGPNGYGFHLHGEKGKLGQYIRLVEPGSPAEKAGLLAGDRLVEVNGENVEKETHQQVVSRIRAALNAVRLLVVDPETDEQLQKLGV"}, "[10]": {"target": "T8, GIPC1, O14908", "T8 sequence (O14908 128-223, limits assumed, looked up)": "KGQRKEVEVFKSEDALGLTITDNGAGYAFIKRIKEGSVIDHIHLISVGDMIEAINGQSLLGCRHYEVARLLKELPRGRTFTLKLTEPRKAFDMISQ"}, "[11]": {"target": "T9, MPDZ_2, O75970", "T9 sequence (O75970 252-347, limits assumed, looked up)": "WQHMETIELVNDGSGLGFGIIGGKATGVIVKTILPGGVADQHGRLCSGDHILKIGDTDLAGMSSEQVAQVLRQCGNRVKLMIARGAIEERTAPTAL"}, "[12]": {"target": "T10, MPDZ_6, O75970", "T10 sequence (O75970 1003-1099, limits assumed, looked up)": "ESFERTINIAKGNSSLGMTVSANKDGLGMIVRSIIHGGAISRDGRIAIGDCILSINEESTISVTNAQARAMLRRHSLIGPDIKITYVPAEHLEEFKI"}, "[13]": {"target": "MAGI3_6, Q5TCQ9", "sequence (Q5TCQ9 1014-1103)": "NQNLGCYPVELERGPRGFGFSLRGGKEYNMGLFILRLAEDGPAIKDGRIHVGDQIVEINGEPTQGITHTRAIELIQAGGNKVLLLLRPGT"}, "[14]": {"target": "T11, INTU, Q9ULD6", "T11 sequence (Q9ULD6 180-273, limits assumed, looked up)": "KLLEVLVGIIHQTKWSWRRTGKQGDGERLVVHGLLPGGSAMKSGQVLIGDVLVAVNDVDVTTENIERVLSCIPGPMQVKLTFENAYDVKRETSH"}, "[15]": {"target": "T12, APBA1_1, Q02410", "T12 sequence (Q02410 651-752, limits assumed, looked up)": "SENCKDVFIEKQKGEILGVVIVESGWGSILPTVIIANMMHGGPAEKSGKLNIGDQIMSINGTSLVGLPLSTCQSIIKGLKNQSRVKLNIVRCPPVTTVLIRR"}, "[16]": {"target": "PREX1_1, Q8TCU6", "sequence (Q8TCU6 608-718)": "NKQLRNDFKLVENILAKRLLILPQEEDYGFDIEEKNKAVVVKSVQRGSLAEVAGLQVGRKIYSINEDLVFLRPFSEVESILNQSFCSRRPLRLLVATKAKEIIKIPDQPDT"}, "[17]": {"target": "T13, RGS12, O14924", "T13 sequence (O14924 17-108, limits assumed, looked up)": "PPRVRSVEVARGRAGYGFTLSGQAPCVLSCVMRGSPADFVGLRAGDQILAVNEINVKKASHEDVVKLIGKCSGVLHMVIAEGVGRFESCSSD"}, "[18]": {"target": "T14, PDZD4, Q76G19", "T14 sequence (Q76G19 125-224, limits assumed, looked up)": "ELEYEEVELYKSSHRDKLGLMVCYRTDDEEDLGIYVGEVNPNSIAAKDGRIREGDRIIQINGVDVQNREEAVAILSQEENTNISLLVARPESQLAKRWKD"}, "[19]": {"target": "GRIP2_2, Q9C0E4", "sequence (Q9C0E4 137-245)": "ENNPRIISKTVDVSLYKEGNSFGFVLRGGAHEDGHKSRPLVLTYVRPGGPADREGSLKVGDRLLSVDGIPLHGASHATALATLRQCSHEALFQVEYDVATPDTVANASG"}, "[20]": {"target": "T15, SNTB2, Q13425", "T15 sequence (Q13425 110-208, limits assumed, looked up)": "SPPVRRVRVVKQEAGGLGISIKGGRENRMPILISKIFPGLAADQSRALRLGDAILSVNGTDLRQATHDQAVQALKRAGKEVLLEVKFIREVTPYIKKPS"}, "[21]": {"target": "NHERF4_3, Q86UT5", "sequence (Q86UT5 325-412)": "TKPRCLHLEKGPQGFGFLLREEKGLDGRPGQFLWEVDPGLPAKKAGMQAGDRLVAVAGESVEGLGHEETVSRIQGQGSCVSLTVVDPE"}}}
{"binder": "NLNSSEGVPDLLV", "note": "[SARS-CoV-E, P59637]", "values": [{"measurement": "pKd", "setting": "[1]", "value": "below the threshold"}, {"measurement": "pKd", "setting": "[2]", "value": "below the threshold"}, {"measurement": "pKd", "setting": "[3]", "value": "below the threshold"}, {"measurement": "pKd", "setting": "[4]", "value": "below the threshold"}, {"measurement": "pKd", "setting": "[5]", "value": "below the threshold"}, {"measurement": "pKd", "setting": "[6]", "value": "below the threshold"}, {"measurement": "pKd", "setting": "[7]", "value": "below the threshold"}, {"measurement": "pKd", "setting": "[8]", "value": 4.64}, {"measurement": "pKd", "setting": "[9]", "value": "below the threshold"}, {"measurement": "pKd", "setting": "[10]", "value": "below the threshold"}, {"measurement": "pKd", "setting": "[11]", "value": "below the threshold"}, {"measurement": "pKd", "setting": "[12]", "value": "below the threshold"}, {"measurement": "pKd", "setting": "[13]", "value": "below the threshold"}, {"measurement": "pKd", "setting": "[14]", "value": "below the threshold"}, {"measurement": "pKd", "setting": "[15]", "value": "below the threshold"}, {"measurement": "pKd", "setting": "[16]", "value": "below the threshold"}, {"measurement": "pKd", "setting": "[17]", "value": "below the threshold"}, {"measurement": "pKd", "setting": "[18]", "value": "below the threshold"}, {"measurement": "pKd", "setting": "[19]", "value": "below the threshold"}, {"measurement": "pKd", "setting": "[20]", "value": "below the threshold"}, {"measurement": "pKd", "setting": "[21]", "value": "below the threshold"}]}
